Results reported in publication PMC4904194, “Crystal structure of tyrosine decarboxylase and identification of key residues involved in conformational swing and substrate binding” (Scientific Reports, 2016).

Legend:
[1] = biological target: the molecule itself; experiment: crystal structure; LbTDC/PLP complex at a molar ratio of 1:4, 0.1 M sodium cacodylate trihydrate pH 7.0, 0.1 M MgCl2, 16% PEG 4000; space group P21
[2] = biological target: the molecule itself; experiment: crystal structure; apo-LbTDC, sitting-drop vapor diffusion at 18 °C, 0.1 M sodium cacodylate trihydrate pH 7.5, 0.2 M MgCl2, 18% PEG 1000; space group P21

B1: Lactobacillus brevis tyrosine decarboxylase in complex with PLP, holo form (enzyme, Lactobacillus brevis CGMCC 1.2028)
chain: MEKSNRSLKDLDLNALFIGDKAENGQLYKDLLNKLVDEHLGWRKNYIPSDPNMIGPEDQNSPAFKKTVGHMKTVLDQLSERIRTESVPWHSAGRYWGHMNSETLMPALLAYNYAMLWNGNNVAYESSPATSQMEEEVGQEFARLMGYDYGWGHIVADGSLANLEGLWYARNIKSLPFAMKEVNPELVAGKSDWELLNMPTKEIMDLLENAGSQIDEVKKRSARSGKNLQRLGKWLVPQTKHYSWMKAADIIGIGLDQVVPVPIDSNYRMDIQALESIIRKYAAEKTPILGVVGVAGSTEEGAVDGIDKIVALRQKLQKEGIYFYLHVDAAYGGYARALFLDEDDQFIPYKNLQKVHAENHVFTEDKEYIKPEVYAAYKAFDQAESITIDPHKMGYVPYSAGGIVIQDIRMRDTISYFATYVFEKGADIPALLGAYILEGSKAGATAASVWAAHHTLPLNVTGYGKLEGASIEGAHRYYDFLKNLKFEVAGKRISVHPLISPDFNMVDYVLKEDGNDDLIEMNRLNHAFYEQASYVKGSLYGKEYIVSHTDFAIPDYGDSPLAFVESLGFSEVEWRHAGKVTIIRASVMTPYMNQRENFDYFAPRIKKAIQADLEKVYASVNQKENV
modifications: PLP covalently attached to the ε-amino group of K392 (internal aldimine, Schiff base)
notes: Tyrosine decarboxylase (TDC, EC 4.1.1.25) of Lactobacillus brevis CGMCC 1.2028; domains in the structure span residues 7-618; also called holo-LbTDC; LbTDC/PLP complex; source: E. coli BL21(DE3) harboring pET24a-tdc, purified (Ni2+-agarose column); crystallized with PLP at a molar ratio of 1:4
With B1 the “stoichiometry N” value [1] was 2.

B2: Lactobacillus brevis tyrosine decarboxylase, apo form (without PLP) (enzyme, Lactobacillus brevis CGMCC 1.2028)
chain: MEKSNRSLKDLDLNALFIGDKAENGQLYKDLLNKLVDEHLGWRKNYIPSDPNMIGPEDQNSPAFKKTVGHMKTVLDQLSERIRTESVPWHSAGRYWGHMNSETLMPALLAYNYAMLWNGNNVAYESSPATSQMEEEVGQEFARLMGYDYGWGHIVADGSLANLEGLWYARNIKSLPFAMKEVNPELVAGKSDWELLNMPTKEIMDLLENAGSQIDEVKKRSARSGKNLQRLGKWLVPQTKHYSWMKAADIIGIGLDQVVPVPIDSNYRMDIQALESIIRKYAAEKTPILGVVGVAGSTEEGAVDGIDKIVALRQKLQKEGIYFYLHVDAAYGGYARALFLDEDDQFIPYKNLQKVHAENHVFTEDKEYIKPEVYAAYKAFDQAESITIDPHKMGYVPYSAGGIVIQDIRMRDTISYFATYVFEKGADIPALLGAYILEGSKAGATAASVWAAHHTLPLNVTGYGKLEGASIEGAHRYYDFLKNLKFEVAGKRISVHPLISPDFNMVDYVLKEDGNDDLIEMNRLNHAFYEQASYVKGSLYGKEYIVSHTDFAIPDYGDSPLAFVESLGFSEVEWRHAGKVTIIRASVMTPYMNQRENFDYFAPRIKKAIQADLEKVYASVNQKENV
notes: Tyrosine decarboxylase (TDC, EC 4.1.1.25) of Lactobacillus brevis CGMCC 1.2028; domains in the structure span residues 7-618; A selenomethionine form was used only for phasing; also called apo-LbTDC; LbTDC; source: E. coli BL21(DE3) harboring pET24a-tdc, purified (Ni2+-agarose column)
With B2 the “stoichiometry N” value [2] was 2.
